# Experimental data reported in PMC11633051, “Streptococcus pneumoniae GAPN is a key metabolic player necessary for host infection” (Protein Science : A Publication of the Protein Society, 2024).
# Like-named read-outs stand apart in the source and are kept apart here.
# B1: Streptococcus pneumoniae GAPN (non-phosphorylating glyceraldehyde-3-phosphate dehydrogenase) (enzyme, S. pneumoniae strain D39)
# chain: MTRYQNLVNGKWKSSEQEITIYSPINQEELGTVPAMTQTEADEAMQAARAALPAWRALSAIERAAYLHKTAAILERDKEKIGTILAKEVAKGIKAAIGEVVRTADLIRYAAEEGLRITGQAMEGGGFEAASKNKLAVVRREPVGIVLAIAPFNYPVNLSASKIAPALIAGNVVMLKPPTQGSISGLLLAKAFEEAGIPAGVFNTITGRGSEIGDYIIEHKEVNFINFTGSTPIGERIGRLAGMRPIMLELGGKDAALVLEDADLEHAAKQIVAGAFSYSGQRCTAIKRVIVLESVADKLATLLQEEVSKLTVGDPFDNADITPVIDNASADFIWGLIEDAQEKEAQALTPIKREGNLLWPVLFDQVTKDMKVAWEEPFGPVLPIIRVASVEEAIAFANESEFGLQSSVFTNDFKKAFEIAEKLEVGTVHINNKTQRGPDNFPFLGVKGSGAGVQGIKYSIEAMTNVKSIVFDVK
# notes: GAPN, non-phosphorylating glyceraldehyde-3-phosphate dehydrogenase of S. pneumoniae strain D39; gapn gene PCR amplified from genomic DNA; UniProt A0A0H2ZNN4_STRP2; The gene was inserted with an N-terminal 6xHis tag into NdeI-cleaved pET21b; Homotetramer in the cryo-EM structures
# What was measured:
# O=C[C@H](O)COP(=O)(O)O = test: purified protein; conditions: pH 7.5, 25°C, 1.0 mM NADP+, 40 nM GAPN
# [1] = system: NC(=O)c1ccc[n+]([C@@H]2O[C@H](COP(=O)(O)OP(=O)(O)OC[C@H]3O[C@@H](n4cnc5c(N)ncnc54)[C@H](OP(=O)(O)O)[C@@H]3O)[C@@H](O)[C@H]2O)c1; test: purified protein; conditions: pH 7.5, 25°C, 1.0 mM G3P, 40 nM GAPN, varied: cofactor
# [2] = system: NC(=O)c1ccc[n+]([C@@H]2O[C@H](COP(=O)(O)OP(=O)(O)OC[C@H]3O[C@@H](n4cnc5c(N)ncnc54)[C@H](O)[C@@H]3O)[C@@H](O)[C@H]2O)c1; test: purified protein; conditions: pH 8.5, 25°C, 1.0 mM G3P (Figure 2 legend says 500 μM), 20 μM GAPN, varied: cofactor
# S. pneumoniae GAPN [3] = target: T1, S. pneumoniae GAPN (Streptococcus pneumoniae, UniProt A0A0H2ZNN4); test: isothermal titration calorimetry; type: binding
# T1 construct: N-terminal 6xHis tag, pET21b (NdeI), E. coli BL21(DE3); tag removal not mentioned; homotetramer; catalytic C283
# S. pneumoniae GAPN [4] = target: T1, S. pneumoniae GAPN; test: UV kinetics at […] nm, varied G3P with fixed E4P ([…]); type: biochemical
# [5] = target: the molecule itself; test: cryo-EM structure; purified GAPN at 90 uM in 50 mM HEPES pH 7.5, 50 mM NaCl, 2 mM DTT; alone (apo), with 1 mM NADP+ (holo) or with 1 mM G3P; single particle reconstruction
molecule,measurement,setting,value
S. pneumoniae GAPN (Streptococcus pneumoniae D39),Km,O=C[C@H](O)COP(=O)(O)O,88 ± 17 µM
same,Vmax,O=C[C@H](O)COP(=O)(O)O,580 ± 30 nM/s
same,kcat,O=C[C@H](O)COP(=O)(O)O,14.5 ± 0.7 s⁻¹
same,Km,[1],119 ± 12 µM
same,Vmax,[1],570 ± 20 nM/s
same,kcat,[1],14.2 ± 0.6 s⁻¹
same,Km,[2],7200 ± 2000 µM
same,kcat,[2],0.4 ± 0.1 s⁻¹
NC(=O)c1ccc[n+]([C@@H]2O[C@H](COP(=O)(O)OP(=O)(O)OC[C@H]3O[C@@H](n4cnc5c(N)ncnc54)[C@H](OP(=O)(O)O)[C@@H]3O)[C@@H](O)[C@H]2O)c1 [NADP^+],Kd,S. pneumoniae GAPN [3],51 ± 32 µM
O=C[C@H](O)COP(=O)(O)O [G3P],Kd,S. pneumoniae GAPN [3]; read-out: K D,0.053 ± 0.036 µM
O=C[C@H](O)[C@H](O)COP(=O)(O)O [E4P],Ki,S. pneumoniae GAPN [4],25.7 ± 7.2 µM
B1,stoichiometry N,[5],4
